Laboratory results published in patent US12723255B2, “Herbicide tolerance genes and methods of use thereof” (priority 2014, dated 2026).

B1: MON-HT8: engineered oxygenase protein, amino acid sequence SEQ ID NO:37 (protein)
chain: MHAALTPLTNKYRFIDVQPLTGVLGAEITGVDLREPLDDSTWNEILDAFHTYQVIYFPGQAITNEQHIAFSRRFGPVDPVPILKSIEGYPEVQMIRREANESGRVIGDDWHTDSTFLDAPPAAVVMRAIEVPEYGGDTGFLSMYSAWETLSPTMQATIEGLNVVHSATKVFGSLYQATNWRFSNTSVKVMDVDAGDRETVHPLVVTHPVTGRRALYCNQVYCQKIQGMTDAESKSLLQFLYEHATKFDFTCRVRWKKDQVLVWDNLCTMHRSVPDYGNAFRYLTRTTVAGDKPSR
B2: MON-HT2: engineered oxygenase protein, amino acid sequence SEQ ID NO:18 (protein)
chain: MHAALTPLTNKYRFIDVQPLTGVLGAEITGVDLREPLDDSTWNEILDAFHTYQVIYFPGQAITNEQHIAFSRRFGPVDPVPLLKSIEGYPEVQMIRREANESSRVIGDDWHSDSTFLDAPPAAVVMRAIEVPEYGGDTGFLSMYSAWETLSPTMQATIEGLNVVHSATKVFGSLYQATNWRFSNTSVKVMDVDAGDRETVHPLVVTHPVTGRRALYCNQVYCQKIQGMTDAESKSLLQFLYEHATKFDFTCRVRWKKDQVLVWDNLCTMHRAAPDYAGKFRYLTRTTVAGDKPSR

Legend:
[1] = type: biochemical; details: for temperature sensitivity compared with the wild-type enzyme: substrate 2,4-D, lower T1/2 than wild-type
Protocol: To analyze these engineered proteins for activity in higher temperatures, the in vitro enzyme assay in Example 1 was modified to specify pre-heating all of the assay components to the desired temperature for 5 minutes before combining the components and then maintaining the reaction at the desired temperature for the duration of the reaction. To normalize the assay measurements, quizalofop-P was used as the substrate for the reaction and enzyme activity was normalized based on the 25° C. readings. Using these parameters, the temperature at which the enzyme activity was half of maximum (T1/2) was calculated. The T1/2 for MON-HT55 was calculated to be 29° C., and the T1/2 for wild-type RdpA was calculated to be 38° C. (FIG. 2A).
Enzyme activity over a range of temperatures was analyzed in-depth for MON-HT1, MON-HT2, MON-HT7, and MON-HT8. These assays were conducted as described above. Quizalofop-P or 2,4-D was used as the substrate for these reactions and activity was normalized based on the activity of the wild-type enzyme at 25° C. The activity curves obtained are presented in FIG. 2B (with quizalofop-P as the substrate) and FIG. 2C (with 2,4-D as the substrate). Using quizalofop-P as the substrate, MON-HT55 was the most temperature sensitive, with a T1/2 of 29° C. […] MON-HTI was slightly less temperature sensitive, with a T1/2 about 1° C. higher than the wild-type enzyme.

[2] = type: physicochemical; details: buffer; for T1/2, temperature where 50% of the protein was unfolded, Buffer: pH 7.5
How it was run: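 Thermal shift assay: purified enzyme in 30 mM Tris pH7.5, 150 mM NaCl, with or without 50 uM Fe2+ and 1.0 mM aKG. Unfolding followed by SYPRO orange fluorescence from 10° C. to 95° C. in 0.5° C. steps; melting temperature (T1/2) taken from the curve.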

F1 hybrid maize plants = test: efficacy field trial with segregating F1 hybrid plants; type: in vivo; details: for % Injury from V4 2,4-D / % Injury from V8 2,4-D: 2,4-D amine 2× at VE-V2 (plus quizalofop-P 0.5×), V4, V8; for % Injury from V4 Quizalofop / % Injury from V8 Quizalofop: quizalofop-P 2× at VE-V2, V4, V8
Protocol: Ten unique engineered proteins optimized for activity at higher temperatures were selected for maize transformation and analysis in plants. DNA constructs were produced for expressing these engineered proteins with codon usage optimized for monocot expression using methods known to those skilled in the art. Enhancers, promoters, leaders, introns, CTPs, and 3′UTRs were tested in various combinations with the engineered proteins in these DNA constructs. The DNA constructs were used to transform immature maize (LH244) embryos with these vectors using Agrobacterium tumifaciens and standard methods known in the art. Regenerated R0 transgenic plantlets were grown in the green house.
Transgenic R0 maize plants were screened by the application of quizalofop-P (2×) plus 2,4-D (2×) at 7 to 10 days following transplant into plugs (generally corresponding to V3-V4 growth stage). All constructs tested produced plants containing unique events that passed the RO screen. The R0 plants were selfed to generate R1 homozygous seed and the R0 was also used as the male to cross with inbred plants containing maize event MON89034 to generate segregating F1 hybrid seed for efficacy field trials.
An efficacy field trial was conducted with segregating F1 hybrid plants, with 50% hemizygous and 50% null for the transgene. Tolerance to quizalofop-P (2×) plus 2,4-D (2×) was assessed using two herbicide application regimens: (1) quizalofop-P (Assure II) at 0.16 lb ai/acre (2×) plus 0.25% v/v non-ionic surfactant (NIS) applied at VE-V2 growth stage followed by the same at V4 growth stage followed by the same at V8 growth stage and (2) 2,4-D amine at 2 lb ae/acre (2×) plus quizalofop-P at 0.04 lb ai/acre (0.5×) plus 0.25% v/v NIS applied at VE-V2 growth stage followed by 2,4-D amine at 2 lb ae/acre (2×) plus 0.25% v/v NIS applied at V4 growth stage followed by the same at V8 growth stage. The 50% of the plants that were null for transgene were removed by the first quizalofop-P application at VE-V2 growth stage. Plots were visually rated 10-14 days after application for crop injury on a scale of 0 to 100 with “0” being none and “100” being complete crop destruction. […] The percentage injury rating with 2× application of 2,4-D at V8 growth stage ranged from a high of 40% to a low of 0. Similarly, the percentage injury rating with 2× application of quizalofop-P at V8 growth stage ranged from a high of 90% to a low of 0. Variation in injury rating between plants expressing the same protein is likely due to variations in construct design or transgene insertion location.

[3] = system: mRNA transcribed from the transgene cassette; test: Quantigene analysis of transgene mRNA expression in leaf samples; details: normalized to maize housekeeping genes, average of eight samples
Text: Leaf samples were collected from the plants containing transgene cassettes encoding MON-HT1, MON-HT2, and MON-HT8 with and without CTP sequences to determine expression of the mRNA transcribed from the transgene cassette encoding the engineered proteins. Quantigene® analysis was done on the leaf sample extracts to determine mRNA expression of the transgene cassette. For these assays, the probe was to the common 3′-UTR sequence present in each expression cassette used to generate the transgenic plants. Relative expression was calculated by normalizing to maize housekeeping genes. A leaf sample was collected from each of eight plants for each construct configuration used to make the transgenic plants, and the reported relative mRNA expression data is an average of the eight samples with standard error.

Molecule | T1/2, temperature at which the enzyme activity was half of maximum [1] [°C] | temperature sensitivity compared with the wild-type enzyme [1] | T1/2, temperature where 50% of the protein was unfolded, Buffer plus Fe2+ and aKG [2] [°C] | T1/2, temperature where 50% of the protein was unfolded, Buffer [2] [°C] | % Injury from V4 2,4-D (F1 hybrid maize plants; CTP A) [%] | % Injury from V8 2,4-D (F1 hybrid maize plants; CTP A) [%] | % Injury from V4 Quizalofop (F1 hybrid maize plants; CTP A) [%] | % Injury from V8 Quizalofop (F1 hybrid maize plants; CTP A) [%] | % Injury from V4 2,4-D (F1 hybrid maize plants; CTP B) [%] | % Injury from V8 2,4-D (F1 hybrid maize plants; CTP B) [%] | % Injury from V4 Quizalofop (F1 hybrid maize plants; CTP B) [%] | % Injury from V8 Quizalofop (F1 hybrid maize plants; CTP B) [%] | % Injury from V4 2,4-D (F1 hybrid maize plants; CTP C) [%] | % Injury from V8 2,4-D (F1 hybrid maize plants; CTP C) [%] | % Injury from V4 Quizalofop (F1 hybrid maize plants; CTP C) [%] | % Injury from V8 Quizalofop (F1 hybrid maize plants; CTP C) [%] | % Injury from V4 2,4-D (F1 hybrid maize plants; CTP None) [%] | % Injury from V8 2,4-D (F1 hybrid maize plants; CTP None) [%] | % Injury from V4 Quizalofop (F1 hybrid maize plants; CTP None) [%] | % Injury from V8 Quizalofop (F1 hybrid maize plants; CTP None) [%] | other results
B1 | 41 | slightly more temperature sensitive | 61 | 61 | 10 | 10 | 1.25 | 1.25 | 12.5 | 11.67 | 9.17 | 8.33 | 20 | 21.25 | 30 | 32.5 | 0 | 0 | 85 | 90 | Relative Expression ([3]; CTP A): 8.06; Relative Expression ([3]; CTP B): 7.62; Relative Expression ([3]; CTP C): 4.87
B2 | 46 | slightly more temperature sensitive | 58 | 55 | 20 | 34.17 | 0 | 0 | 10.56 | 13.33 | 11.67 | 11.67 | 12 | 12 | 14.33 | 14.33 | 20 | 33.75 | 0 | 0 | Relative Expression ([3]; CTP A): 6.96; Relative Expression ([3]; CTP B): 6.16; Relative Expression ([3]; CTP C): 4.11; Relative Expression ([3]; no CTP): 4.66
